From patent publication US20220047631A1

Key:
Glycopeptide = assay: surface plasmon resonance, Table S3 of Brooks et al. (2010) PNAS drawn on the sheet; per legend paragraph 58 measured for the 237 Fab [C]
[1] = target: Tn-glycosylated murine podoplanin on COSMC-mutant cells (murine) (UniProt Q62011); assay: flow cytometry on Ag104A, Jurkat and SKOV3 variants; binding ratio = MFI primary+secondary / MFI secondary alone
Sequence of Tn-glycosylated murine podoplanin on COSMC-mutant cells (murine) (Q62011 23-172, change not shown): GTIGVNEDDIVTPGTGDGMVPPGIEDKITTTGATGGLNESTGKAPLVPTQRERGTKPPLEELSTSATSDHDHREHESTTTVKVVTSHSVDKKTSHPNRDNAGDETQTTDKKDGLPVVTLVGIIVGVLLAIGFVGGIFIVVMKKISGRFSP

koff (Glycopeptide) [s⁻¹] | kon (Glycopeptide) [M⁻¹ s⁻¹] | fold of binding ratio over cells that were PDPN- and/or Cosmc+ [1] [fold] | Binder
0.013 | 94000 |  | 237mAb Fab (Fab, V domains shown) VH: QVQLQQSGGGLVQPGGSMKIFCAASGFTFSDAWMDWVRQSPEKGLEWVAEIRNKANNHETYYAESVKGRFTITRDDSKSRMSLQMNSLRAEDTGIYYCSGGKVRNAYWGQGTTVTVSS VL: DIQLTQSPLSLPVSLGDQASISCRSSQSLVHSNGNTYLHWYLQKPGQSPKLLIYKVSNRFSGVPDRFSGSGSGTDFTLKISSVEAEDLGVYFCSQSTHVPTFGGGTKLEIK
 |  | > 100 | 237 monoclonal antibody (antibody, V domains shown) VH: QVQLQQSGGGLVQPGGSMKIFCAASGFTFSDAWMDWVRQSPEKGLEWVAEIRNKANNHETYYAESVKGRFTITRDDSKSRMSLQMNSLRAEDTGIYYCSGGKVRNAYWGQGTTVTVSS VL: DIQLTQSPLSLPVSLGDQASISCRSSQSLVHSNGNTYLHWYLQKPGQSPKLLIYKVSNRFSGVPDRFSGSGSGTDFTLKISSVEAEDLGVYFCSQSTHVPTFGGGTKLEIK
